# Measured values taken from US20150174169.
# Tests used:
# [1] = system: AAVS1 ZFN pair (ZFN-L/ZFN-R, PPP1R12C intron 1) (synthetic construct); test: cell_activity; details: CD34+ cord blood cells, Cel-1 mismatch assay, +/-3.8
# [2] = system: IL2RG ZFN pair (ZFN-L/ZFN-R, exon 5) (synthetic construct); test: cell_activity; details: in vitro sample A
substance,measurement,setting,value
AAVS1 ZFN target site,activity,[1],23.8 % NHEJ
IL2RG ZFN target site,activity,"[2]; deep sequencing, B 61.18, G 45.60, Cel-1 assay 26.3+/-2.7 (p192)",54.6 % NHEJ
SCARB1 off-target site,activity,"[2]; B 0.70, G ns, ns in mouse",0.17 % NHEJ
SLC31A1 off-target site,activity,"[2]; B and G ns, mouse C0 0.02",0.61 % NHEJ
